Test results from patent US7498306B2, “Peptides binding to the phosphatase 2A protein” (priority 2002, dated 2009).

Columns and labels:
[1] = target: T1, trimeric ABC holoenzyme PP2A1 (Sus scrofa, UniProt P54612+Q29090); test: peptide spot membrane binding, detected by western blot, with trimeric PP2A1 holoenzyme; parameters: species or system porcine; details: 4 μg/ml purified protein overnight, pool of antibodies against A, B and C; for binding of Bcl-2 peptide sequence to PP2A1 holoenzyme: Bcl-2 dodecapeptide membrane, FIG. 2; for binding of E4orf4 peptide sequence to PP2A1 protein: E4orf4 dodecapeptide membrane, FIG. 1
T1 construct: The trimeric PP2A1 protein has been purified to homogeneity from porcine brain; from tissue; host or cells: porcine brain
T1 sequence (P67776 whole entry, one chain of several, further chain): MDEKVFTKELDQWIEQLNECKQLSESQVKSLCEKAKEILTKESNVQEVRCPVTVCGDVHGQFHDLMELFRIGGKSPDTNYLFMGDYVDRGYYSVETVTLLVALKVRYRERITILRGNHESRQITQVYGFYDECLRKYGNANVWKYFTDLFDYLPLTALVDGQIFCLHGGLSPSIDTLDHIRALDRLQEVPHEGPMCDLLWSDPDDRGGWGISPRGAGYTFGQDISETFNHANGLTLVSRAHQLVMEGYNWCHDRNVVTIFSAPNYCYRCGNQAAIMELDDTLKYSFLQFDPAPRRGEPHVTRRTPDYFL
T1 sequence (P54612 whole entry, one chain of several): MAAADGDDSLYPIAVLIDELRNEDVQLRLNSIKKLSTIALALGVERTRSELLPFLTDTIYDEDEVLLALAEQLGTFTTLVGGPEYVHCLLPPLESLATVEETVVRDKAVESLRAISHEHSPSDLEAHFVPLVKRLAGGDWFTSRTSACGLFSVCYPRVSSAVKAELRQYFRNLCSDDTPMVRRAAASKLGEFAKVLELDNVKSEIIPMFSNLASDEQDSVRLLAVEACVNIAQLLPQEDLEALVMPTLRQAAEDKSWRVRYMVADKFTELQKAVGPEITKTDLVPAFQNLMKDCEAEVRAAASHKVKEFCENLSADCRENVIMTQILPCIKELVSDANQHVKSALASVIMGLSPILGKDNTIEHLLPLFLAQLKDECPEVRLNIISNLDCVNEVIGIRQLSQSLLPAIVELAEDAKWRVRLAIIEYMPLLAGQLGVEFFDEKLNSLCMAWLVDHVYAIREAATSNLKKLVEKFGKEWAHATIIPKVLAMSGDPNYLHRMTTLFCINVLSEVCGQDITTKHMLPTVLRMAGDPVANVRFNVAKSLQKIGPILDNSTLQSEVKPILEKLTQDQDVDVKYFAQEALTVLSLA
Description: The trimeric PP2A1 protein has been purified to homogeneity from porcine brain.
(§1) We have mapped the binding sites between the E4orf4 proteins (coded by the canine adenovirus type 2) and the anti-apoptotic Bcl-2 protein with PP2A by using the <<peptides spot>> technique previously described (Frank et Overwing. (1996). Meth. Mol. Biol. 66, 149-169).
(§2) This approach is based on the use of membranes containing thereon dodecapeptides representing the whole protein of interest (E4orf4 and Bcl-2) with a two amino acid gap per peptide.
(§3) Each membrane is first saturated one hour at room temperature with TBS containing 5% skim milk powder and 3% BSA, then incubated overnight in the same buffer in the of 4 μg/ml of purified protein (sub-unit A of PP2A and PP2A1 holoenzyme).: Fifty six dodecapeptides covering the whole sequence of the E4orf4 protein and hundred-fifteen dodecapeptides covering the whole sequence of the Bcl-2 protein were synthesized and covalently bound to cellulosic membranes.
The specific interaction of each purified protein (respectively the structural sub-unit A, the regulatory sub-unit of B55(B) or the trimeric ABC holoenzyme (named PP2A1) with a peptide sequence is shown by western blot, following incubation of the membrane with an antibody raised against the structural protein A (A), the regulatory sub-unit B (B) and with a pool of antibodies recognising the A, B, and C proteins of PP2A (ABC) (FIGS. 1 and 2).

[2] = target: T2, structural sub-unit A of PP2A (Homo sapiens, UniProt P30153); test: peptide spot membrane binding, detected by western blot, with PP2A sub-unit A; details: E4orf4 dodecapeptide membrane; 4 μg/ml purified protein overnight; antibody against protein A; FIG. 1
T2 construct: made in house; host or cells: bacteria
T2 sequence (P30153 whole entry): as the sequence (P54612 whole entry, one chain of several) above, with T324S counted along it
Description: Recombinant protein A (structural sub-unit of PP2A) expressed in bacteria.
as §1, §2
as §3, with “membranes. […]” for “membranes.”

[3] = target: T3, regulatory sub-unit B55 (B) of PP2A (Homo sapiens, UniProt P63151); test: peptide spot membrane binding, detected by western blot, with PP2A sub-unit B55; details: antibody against sub-unit B
T3 construct: made in house; host or cells: bacteria
T3 sequence (P63151 1-447): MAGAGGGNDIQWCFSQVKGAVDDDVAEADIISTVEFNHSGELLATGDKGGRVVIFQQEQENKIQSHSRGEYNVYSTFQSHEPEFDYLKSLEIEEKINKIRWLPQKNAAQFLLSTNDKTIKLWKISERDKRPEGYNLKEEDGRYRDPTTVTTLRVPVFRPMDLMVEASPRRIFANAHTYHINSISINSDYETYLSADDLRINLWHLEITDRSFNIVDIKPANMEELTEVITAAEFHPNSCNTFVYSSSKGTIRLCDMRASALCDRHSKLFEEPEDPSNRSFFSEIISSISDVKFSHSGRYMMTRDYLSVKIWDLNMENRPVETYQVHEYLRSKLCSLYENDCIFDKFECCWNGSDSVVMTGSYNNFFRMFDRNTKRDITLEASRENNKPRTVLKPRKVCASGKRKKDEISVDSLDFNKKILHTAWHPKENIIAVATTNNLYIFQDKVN
Description: Recombinant protein B55 (regulatory sub-unit of PP2A) expressed in bacteria.
as §1, §2
as §3, with “membranes. […]” for “membranes.”

Substance	binding of Bcl-2 peptide sequence to PP2A1 holoenzyme [1]	binding of E4orf4 peptide sequence to sub-unit A [2]	binding of E4orf4 peptide sequence to PP2A1 protein [1]	further results
LFDFSWLSLKTLLSLALVGA [site 2-ABC, Bcl-2 residues 209-228, spot peptides 105-109]	binding site of Bcl-2 with the PP2A1 holoenzyme	–	–	–
LGSMLE SPMEFLFDTI DDVTAS (LGSMLESPMEFLFDTIDDVTAS) [site A 1, E4orf4 residues 25-46, spot peptides 13 to 18]	–	binding sites of E4orf4 with the sub-unit A	–	–
PLQTPAAPGAAAGPAL [site 1-ABC, Bcl-2 residues 71-86, spot peptides 35 to 37]	binding site of Bcl-2 with the PP2A1 holoenzyme	–	–	–
ARTSPLQTPAAPGAAAGPAL [site 1-B, Bcl-2 residues 67-86, spot peptides 33 to 37]	–	–	–	binding of Bcl-2 peptide sequence to sub-unit B ([3]; Bcl-2 dodecapeptide membrane, FIG. 2): binding site of Bcl-2 with the regulatory sub-unit B
AFRGRE VTVSLLEVFSFC (AFRGREVTVSLLEVFSFC) [site A3, E4orf4 residues 106-124, spot peptides 52 to 55]	–	binding sites of E4orf4 with the sub-unit A	binding sites of E4orf4 with the PP2A1 protein	–
RELGSMLE SPMEFLFDTI DDVTAS (RELGSMLESPMEFLFDTIDDVTAS) [site B1, E4orf4 (canine adenovirus type 2) residues 23-46, spot peptides 12 to 18]	–	–	binding sites of E4orf4 with the PP2A1 protein	binding of E4orf4 peptide sequence to sub-unit B ([3]; E4orf4 dodecapeptide membrane, FIG. 1): binding site of E4orf4 with the structural sub-unit B
